Assay [1] addresses RyR1 purified from rabbit skeletal muscle (rabbit) (UniProt P11716).
For assay [2] the target is unchanged. The source holds these as a separate data set.
Assay [3] addresses T1, RyR1 purified from rabbit skeletal muscle (rabbit, UniProt P11716 1-5037). The assay is described as follows: cell-based or functional assay.
Assay [4] deals with T2, full length recombinant mouse RyR2 (mouse, UniProt E9Q401 1-4966).
T2 construct: ryanodine receptor 2 (RyR2), mouse, recombinant; Cell line of Koop et al., 2008; also called recombinant RyR2
The assay is described as follows: pull-down; NeutrAvidin–agarose affinity chromatography: biotinylated Njun or scrambled Njun on the agarose, recombinant RyR or RyR1 fragments (isolated from HEK293) incubated overnight at 4°C in PBS plus 0.1% SDS; RyR detected with 34C or anti-GFP antibody. The note with it: both partners purified.

In assay [5] the target is T1, RyR1 purified from rabbit skeletal …. Put plainly: pull-down; affinity chromatography: biotinylated canine KEKE peptide on streptavidin–agarose, purified RyR1 or RyR2. The note with it: both partners purified.

Ends that are not written are not given here. * marks the point of attachment. Biotin = O=C1N[C@H]2[C@H](CS[C@H]2CCCCC(=O)*)N1

Sequence of RyR1 purified from rabbit skeletal muscle (rabbit) (P11716 whole entry): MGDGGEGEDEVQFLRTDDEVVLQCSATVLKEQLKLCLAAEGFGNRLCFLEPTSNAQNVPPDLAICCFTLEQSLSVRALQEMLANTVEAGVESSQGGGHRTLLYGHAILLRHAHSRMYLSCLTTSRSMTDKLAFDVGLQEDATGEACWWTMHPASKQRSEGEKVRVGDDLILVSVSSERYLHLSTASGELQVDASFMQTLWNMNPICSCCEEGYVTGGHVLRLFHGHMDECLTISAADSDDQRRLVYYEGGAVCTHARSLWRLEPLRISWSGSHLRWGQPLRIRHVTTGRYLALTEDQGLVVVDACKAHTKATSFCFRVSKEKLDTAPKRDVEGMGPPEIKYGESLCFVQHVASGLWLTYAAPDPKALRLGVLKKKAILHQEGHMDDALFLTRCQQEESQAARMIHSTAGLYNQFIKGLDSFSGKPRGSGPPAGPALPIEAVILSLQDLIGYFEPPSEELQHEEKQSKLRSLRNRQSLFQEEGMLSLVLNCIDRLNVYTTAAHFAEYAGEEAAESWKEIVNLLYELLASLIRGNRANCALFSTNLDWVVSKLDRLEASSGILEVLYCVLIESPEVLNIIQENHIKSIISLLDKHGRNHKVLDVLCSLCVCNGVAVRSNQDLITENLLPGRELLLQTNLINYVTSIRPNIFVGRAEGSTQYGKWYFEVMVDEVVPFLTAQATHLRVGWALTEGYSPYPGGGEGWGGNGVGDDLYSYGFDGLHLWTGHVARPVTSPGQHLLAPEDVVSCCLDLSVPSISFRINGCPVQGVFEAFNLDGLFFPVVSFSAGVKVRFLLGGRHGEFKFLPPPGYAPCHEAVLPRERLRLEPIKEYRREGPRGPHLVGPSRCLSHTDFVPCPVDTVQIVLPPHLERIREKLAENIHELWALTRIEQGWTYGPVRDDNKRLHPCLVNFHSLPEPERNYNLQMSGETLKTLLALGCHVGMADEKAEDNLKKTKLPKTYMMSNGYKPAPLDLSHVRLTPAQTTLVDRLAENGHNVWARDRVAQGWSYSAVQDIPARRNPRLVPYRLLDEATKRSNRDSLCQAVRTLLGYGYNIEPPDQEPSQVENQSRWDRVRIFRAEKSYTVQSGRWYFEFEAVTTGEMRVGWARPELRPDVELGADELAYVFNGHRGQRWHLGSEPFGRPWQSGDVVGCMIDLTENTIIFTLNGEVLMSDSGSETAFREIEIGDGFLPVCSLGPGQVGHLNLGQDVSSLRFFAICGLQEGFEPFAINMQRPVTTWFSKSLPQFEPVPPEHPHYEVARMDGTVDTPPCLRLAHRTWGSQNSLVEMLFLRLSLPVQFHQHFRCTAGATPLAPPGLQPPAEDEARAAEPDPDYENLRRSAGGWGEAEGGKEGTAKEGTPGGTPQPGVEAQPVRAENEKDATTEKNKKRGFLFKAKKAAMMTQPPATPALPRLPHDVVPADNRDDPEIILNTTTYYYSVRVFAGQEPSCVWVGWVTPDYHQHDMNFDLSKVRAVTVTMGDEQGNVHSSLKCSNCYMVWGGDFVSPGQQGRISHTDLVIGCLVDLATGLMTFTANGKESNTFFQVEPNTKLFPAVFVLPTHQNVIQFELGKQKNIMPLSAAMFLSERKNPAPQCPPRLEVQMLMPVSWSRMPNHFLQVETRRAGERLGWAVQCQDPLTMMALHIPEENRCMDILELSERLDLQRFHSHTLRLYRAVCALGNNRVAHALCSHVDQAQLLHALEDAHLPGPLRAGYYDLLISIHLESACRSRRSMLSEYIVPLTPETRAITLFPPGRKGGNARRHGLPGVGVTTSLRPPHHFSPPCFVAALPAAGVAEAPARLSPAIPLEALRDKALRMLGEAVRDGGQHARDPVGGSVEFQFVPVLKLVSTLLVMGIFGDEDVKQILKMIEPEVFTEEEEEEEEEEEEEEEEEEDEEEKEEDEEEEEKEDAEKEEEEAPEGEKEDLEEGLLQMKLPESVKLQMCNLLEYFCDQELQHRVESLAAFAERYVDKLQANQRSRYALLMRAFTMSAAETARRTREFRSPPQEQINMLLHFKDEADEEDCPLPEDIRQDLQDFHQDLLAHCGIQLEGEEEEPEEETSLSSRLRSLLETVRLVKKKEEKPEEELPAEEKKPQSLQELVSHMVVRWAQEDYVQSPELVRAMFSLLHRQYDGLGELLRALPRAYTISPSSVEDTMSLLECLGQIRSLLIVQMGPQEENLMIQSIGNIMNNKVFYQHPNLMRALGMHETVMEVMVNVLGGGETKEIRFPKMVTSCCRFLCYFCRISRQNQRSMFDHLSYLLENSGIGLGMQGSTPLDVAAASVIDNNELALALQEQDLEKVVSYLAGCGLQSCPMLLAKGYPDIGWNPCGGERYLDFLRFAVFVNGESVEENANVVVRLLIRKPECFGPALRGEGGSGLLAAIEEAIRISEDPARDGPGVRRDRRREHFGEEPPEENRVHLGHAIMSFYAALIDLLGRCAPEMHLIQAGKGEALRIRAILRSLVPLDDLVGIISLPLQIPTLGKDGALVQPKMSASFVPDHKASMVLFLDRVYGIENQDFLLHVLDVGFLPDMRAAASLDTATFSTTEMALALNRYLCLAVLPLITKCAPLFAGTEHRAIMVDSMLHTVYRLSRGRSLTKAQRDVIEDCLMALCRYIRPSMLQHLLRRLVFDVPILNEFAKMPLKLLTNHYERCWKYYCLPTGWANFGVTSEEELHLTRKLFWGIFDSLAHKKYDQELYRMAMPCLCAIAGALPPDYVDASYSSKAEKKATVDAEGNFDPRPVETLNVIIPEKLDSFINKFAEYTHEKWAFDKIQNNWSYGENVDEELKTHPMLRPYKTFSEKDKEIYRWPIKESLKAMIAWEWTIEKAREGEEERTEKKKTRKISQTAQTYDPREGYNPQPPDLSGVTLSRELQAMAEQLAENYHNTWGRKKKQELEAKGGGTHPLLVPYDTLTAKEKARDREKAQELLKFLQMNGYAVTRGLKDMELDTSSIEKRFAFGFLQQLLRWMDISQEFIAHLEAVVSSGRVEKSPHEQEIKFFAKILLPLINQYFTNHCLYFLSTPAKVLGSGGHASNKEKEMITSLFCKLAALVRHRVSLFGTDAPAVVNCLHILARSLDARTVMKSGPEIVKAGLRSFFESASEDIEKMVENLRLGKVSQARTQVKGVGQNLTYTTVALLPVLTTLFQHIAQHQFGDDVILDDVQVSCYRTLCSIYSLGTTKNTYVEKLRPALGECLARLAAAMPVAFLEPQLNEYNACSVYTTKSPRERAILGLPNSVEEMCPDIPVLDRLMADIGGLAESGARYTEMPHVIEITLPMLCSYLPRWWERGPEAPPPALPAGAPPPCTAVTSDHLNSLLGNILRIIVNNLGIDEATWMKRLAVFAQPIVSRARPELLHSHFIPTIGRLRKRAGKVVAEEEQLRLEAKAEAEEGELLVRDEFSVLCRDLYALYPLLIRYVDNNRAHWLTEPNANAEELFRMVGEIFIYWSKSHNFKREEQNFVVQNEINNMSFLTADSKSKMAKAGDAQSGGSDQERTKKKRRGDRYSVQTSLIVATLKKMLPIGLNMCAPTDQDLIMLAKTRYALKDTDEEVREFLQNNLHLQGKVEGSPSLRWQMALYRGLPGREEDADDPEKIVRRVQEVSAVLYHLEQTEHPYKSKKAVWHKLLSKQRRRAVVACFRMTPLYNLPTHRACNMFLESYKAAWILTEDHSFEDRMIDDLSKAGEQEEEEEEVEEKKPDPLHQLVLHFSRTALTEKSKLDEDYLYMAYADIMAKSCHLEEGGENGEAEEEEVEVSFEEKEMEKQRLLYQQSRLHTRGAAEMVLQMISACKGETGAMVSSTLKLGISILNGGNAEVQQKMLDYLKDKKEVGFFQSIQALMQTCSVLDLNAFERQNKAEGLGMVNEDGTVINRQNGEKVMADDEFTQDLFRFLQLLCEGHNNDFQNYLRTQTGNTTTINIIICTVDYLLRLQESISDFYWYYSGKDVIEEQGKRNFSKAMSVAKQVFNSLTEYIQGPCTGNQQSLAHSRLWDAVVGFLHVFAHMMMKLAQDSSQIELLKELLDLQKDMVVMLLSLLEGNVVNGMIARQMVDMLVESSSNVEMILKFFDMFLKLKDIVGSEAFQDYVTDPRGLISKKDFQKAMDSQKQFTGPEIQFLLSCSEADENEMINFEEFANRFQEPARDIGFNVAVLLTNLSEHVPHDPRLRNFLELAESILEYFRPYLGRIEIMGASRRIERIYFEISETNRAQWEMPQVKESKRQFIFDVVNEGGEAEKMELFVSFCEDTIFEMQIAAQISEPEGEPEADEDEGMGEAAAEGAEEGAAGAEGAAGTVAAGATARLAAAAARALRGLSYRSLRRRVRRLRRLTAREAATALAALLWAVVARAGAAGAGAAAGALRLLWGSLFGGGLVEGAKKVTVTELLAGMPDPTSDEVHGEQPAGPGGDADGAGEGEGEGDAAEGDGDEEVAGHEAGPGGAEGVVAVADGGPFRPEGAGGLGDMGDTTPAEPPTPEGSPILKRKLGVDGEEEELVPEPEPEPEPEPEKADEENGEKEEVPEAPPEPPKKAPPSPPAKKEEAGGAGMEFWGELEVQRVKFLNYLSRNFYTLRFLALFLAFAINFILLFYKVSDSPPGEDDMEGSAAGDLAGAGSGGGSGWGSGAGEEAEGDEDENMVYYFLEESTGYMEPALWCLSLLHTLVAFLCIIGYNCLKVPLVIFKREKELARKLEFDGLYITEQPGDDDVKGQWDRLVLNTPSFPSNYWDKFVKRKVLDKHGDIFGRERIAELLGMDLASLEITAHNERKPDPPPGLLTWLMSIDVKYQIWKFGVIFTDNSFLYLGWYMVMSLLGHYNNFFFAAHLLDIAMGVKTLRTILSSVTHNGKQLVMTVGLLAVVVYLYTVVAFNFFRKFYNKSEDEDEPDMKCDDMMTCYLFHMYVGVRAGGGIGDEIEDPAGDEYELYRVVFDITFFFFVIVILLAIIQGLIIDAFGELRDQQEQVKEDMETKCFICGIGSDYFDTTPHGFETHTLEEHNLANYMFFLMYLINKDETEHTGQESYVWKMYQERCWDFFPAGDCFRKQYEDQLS
T1 sequence (P11716 whole entry): as above

The molecule “full-length junctin isolated from rabbit skeletal muscle (natural protein)” showed an open probability of purified RyR1 channels in lipid bilayers, 213 nM FLjun in the luminal solution, increase over control in assay [1] of 1.9 fold.
Take “C-terminal domain of canine junctin (amino acids 46–210), His6-tagged (domain or fragment)”: in assay [2], the open probability (Po) of purified RyR1 channels in lipid bilayers, 213 nM Cjun in the luminal solution, relative to control is 0.68 of control.

B1: Njun peptide, N-terminal cytoplasmic domain of junctin (residues 1–22), biotinylated (peptide)
peptide: Biotin-MAEETKHGGHKNGRKGGLSQSS
notes: junctin, N-terminal cytoplasmic domain, residues 1-22; also called biotinylated Njun; junctin cytoplasmic domain; source: synthetic peptide
With B1, in assay [3], the “open probability of purified RyR1 channels in lipid bilayers, 213 nM Njun in the cytoplasmic solution, increase over control” value came out at 5 fold. Moreover, the binding result in assay [4] is “binds”.

B2: Cjun KEKE motif peptide (canine), residues 84–105, biotinylated (peptide)
peptide: Biotin-KRKTKAKVKELTKEELKKEKEK
notes: junctin, canine, KEKE motif, residues 84-105; also called canine KEKE peptide; KEKE peptide; source: synthetic peptide
B2: the binding result in assay [5] was “binds”.

The values are drawn from paper PMC4342579, “A new cytoplasmic interaction between junctin and ryanodine receptor Ca^2+ release channels” (Journal of Cell Science, 2015).
